Assay results: the DeepSol protein solubility set

assay: soluble on expression in E. coli; label from the status in PepcDB or PDB records

Row | Sequence | soluble on expression in E. coli
1 | MGSDKIHHHHHHMKNANHRFFLRERLMKLKTTLFGNVYQFKDVKEVLAKANELRSGDVLAGVAAASSQERVAAKQVLSEMTVADIRNNPVIAYEDDCVTRLIQDDVNETAYNQIKNWSISELREYVLSDETSVDDIAFTRKGLTSEVVAAVAKICSNADLIYGAKKMPVIKKANTTIGIPGTFSARLQPNDTRDDVQSIAAQIYEGLSFGVGDAVIGVNPVTDDVENLSRVLDTIYGVIDKFNIPTQGCVLAHVTTQIEAIRRGAPGGLIFQSICGSEKGLKEFGVELAMLDEARAVGAEFNRIAGENCLYFETGQGSALSAGANFGADQVTMEARNYGLARHYDPFIVNTVVGFIGPEYLYNDRQIIRAGLEDHFMGKLSGISMGCDCCYTNHADADQNLNENLMILLATAGCNYIMGMPLGDDIMLNYQTTAFHDTATVRQLLNLRPSPEFERWLESMGIMANGRLTKRAGDPSLFF | not soluble
2 | MGSDKIHHHHHHMKPIIIFFSLFLIPLFADDLKSGFGEEYYKLDIDQKRQIFFIKMNEMFDQSFKKIEQERAFIEAFFKDAYKTGFRTSNQINLEKLITIKNKYRIENLYDFAEYKKRIQKIPKSMGIAQALVESATGTSRFAREANNLFGEWTWGEKGLIPDLRHPDKKHKIKIFDSLQDSVDSYVLNLNRHFAYEKFRDARAKFESEGKEITGLEAIKTLDSYSERKGYYINLITKIIKRYNLEKYDTNSNNT | not soluble
3 | MGSDKIHHHHHHMKRFLFSFLFGLVLLSGCDFEHEIIEILDMIVSEDQSTDVVAPPTSGEATITFFDVGQGDSTLIRSENYTVLVDTGRHDSDAIFTHLEKQQIDQIDLLILTHPHADHIGNADEIVRLYSPEEVWIDGNEATSKTFENVIDALLDSEAEVVEPRAGDVYERGDFLFEIVNPTKLTGDLNNDSIAFRLTYGDVRVVMTGDAEEAAEQEMVASGTDLEADIFKVAHHGSSTSNQPFFLDEIEPTVAIYSAGEDNSYGHPHREVTSLLNERGIDIFGTDIHGTVLITTDGHTYSIQTEH | not soluble
4 | MGSDKIHHHHHHMKRKIIQQLKLWKDNPARKPLILLGARQVGKTWVMKHFGQTEFENVAYINCDVEPLAKELFAADYSIPRILLTLQAITGTKIEAGKTLIVFDELQEVERGLHSLKYFQENAPEYHVMAAGSLLGITLGKGQSFPVGKVNVMHLYPMDFEEFLMAAGETDLCDLLHQPDWEILKILSLKYVDLLRQYYYVGGMPEVVDCFFQHQNLQEVRDKQTEILDAYRRDISKHTTATESIRIGQVLQSLPSQLAKENKKFIYNVLKKGARATEYELAIQWLMDAGLVHKVSRIKELQMPVKFYEDLGAFKLFLLDCGLLGCMTEAPASQMLVGDNVFKEFKGAFTEQFVLQQLVAQGFSPYYWSSDKTPAEIDFVVQTEHRVIPVEVKAEENVRARSMSEYIKNHPDYQLKGLRISMMGYQDQEWMENIPLFAITKFFG | not soluble
5 | MGSDKIHHHHHHMKRSKYQLGRIGRLTIDRIVSIGAYLDGGDTDILLPNRYLPSDAAPGMEVEVFVYHDNEGRLIATTMRPLVEVGQVALLHAVSVTDSGAYMEWGIHKDLFVPFREQTQLIREGGRYFVYAYIDHVSGKIVGSAKLSKHLGNIPPSYSPGDKVSALVYERIDPGYRMIVDHTHWGMIYSDTLPMPLAIGAQVKAFVIRLRDDGKIDLSLKPIGYDRIDSESERLLHMLQRRGGRLPIGDKSSPEEIMQHTGMSKKTFKMAVGMLYRRRLIRITPTAITLNETVSTPEA | not soluble
6 | MGSDKIHHHHHHMKSFRNIMGDSQNLDKRIQKIKQNVINDTDVKHFLEKNRSNITNEMIDEDLNVLQEYKDQQKVYDGHRYDDCPNFVKGHVPELYIENERIKIRYLPCPCKIKHDEERFDSQLITSHHMQRDTLHAKLKDIYMNNRERLDVAMAADQICTAITNDEKVKGLYLYGPFGTGKSFILGAIANQLKSQKISSTIVYLPEFIRTLKGGFKDGSFEKKLQRVREANILMLDDIGAEEVTPWVRDEVIGPLLHYRMVHELPTFFSSNFNYSELEHHLSITRDGTEKTKAARIIERIKTLSTPYYLTGKNFRNN | not soluble
7 | MGSDKIHHHHHHMKSYVLTVSCKSTRGIVAAITGYLAEKGCYISDSSQFDDFQTGLFFMRLTFISQDGAKLEELREGFEPVIKRFEMMMEIRDSEERMKVLLMVSRFGHCLNDLLYRWKIGALPIDIVGVVSNHFDYQKVVVNHDIPFHHIKVTKENKPKAEAQLMDVVEQTGAELIVLARYMQVLSDALCKKMSGKIINIHHSFLPSFKGANPYKQAYERGVKLIGATAHYVTADLDEGPIIEQDIARITHAQSAEDYVSIGRDVESQVLARAVHAHIHHRCFINGNRVVVFPPSPGSYASERMG | not soluble
8 | MGSDKIHHHHHHMKTAEPQTIDDLERWIKSRGITEVECLVPDLSGIPRGKILPARKFLSCLRDRGLRLPESVFTQTVTGEYPEDDPVDIADSDVYLRPDPRTIRVVPWYEEPTAQVINDCFHRDRSEVHCAPRQVLRNILALYEKQGWKPVVAPELEFYLVRINADPDYPLEPPIGRSGRAETGRQAYGIDAVNEFDPLFEDIYDYAEEQNLDLDTLHHESGSAQMEINFLHGDPMELADQVFLFKRTVRQAALRHNVYATFMAKPLAGQPGSAMHLHQSITDAESGRNILVKKNGEDSDLFRWHIGGLQKYLPHCMLMLAPNVNSYRRFLPDQSAPINMHWGHDNRTVSLRVPYADASARRVENRLSGADANPYLAIAASLACGYLGMIEKIEPTAPITGSAYTRAHNLPRHLPDAIERFERARPLHELLNADFVRVYASVKWAEWDAYQHVISSWEREYLLLNV | not soluble
9 | MGSDKIHHHHHHMKTHIFLYPGEGIGPELFESLRAFFSLFNDKLEYHYLASFQDLSSLNKPYYVLCGPFASEQEQTDVLNPLHPLYAHTLVPHDKKGNASILALPLTQKQTTGALKDLSVIAACFDPAHKVVMVQQYQEQPQIWEDAMKAWTKLAFSNHDWKFEDANVLSFIKHSQYSKANQVVSSMEGANVLKALYASIYKSLNRAHTLIEVEDGYITMPMHGHAPDIVGMGIANPYALLMAFCRLLTVAGYEELAQQVENQIESAFYENRDQTTPDQGGVLNTEKYMAMMVECINL | not soluble
10 | MGSDKIHHHHHHMKTLKFKLYQHKRNRHLKRIINAAGVIYNHCIALHKRYYRMWGNHLSCAKLQSHIAKLRKRNLFWQSLGSQAVQDICQRIEKAYQLFFKHNKKGVRPPGFKKVKKYKSFTLKQAGYKFLGSNRVKIGHRVYQFWKSRDIEGTVKTLTIKRTPLGELFMVVVVDNVSQAEIEVKTGKIAGFDFGLKTFLTCSDGTKIESPQFFKQSLNAIKKASRQHSKKLKSSSNRERARKNLVRKYEDISHRRRDWFWKLAHELTDKFDILCFETLNLKGMQRLWGRKISDLAFGEFLQILKWIAKKKNKLVVFIDQWYPSTKTCSGCGHVLEELDLSIREWRCPSCQSVNGRDENASKVICAVGASTVGLGDVSRYETAIAV | not soluble
11 | MGSDKIHHHHHHMKTNYRLHMQQGSDYLKKFLEKHIDLLKKIPLFEGIKSDELEEMLECLGVVDKTYPKDSIIFSVGSEVTSIGIMLKGSAHIIKEDIEGNRNIVAELLPGDLFGEVFACTRLHKSNVTVTTTSSCEVLFIKFKSVTGICSSTCVFHNRLVENMLQLIAEKNILLHNKIELLSRKTTREKLLMYFSKQIEQTGSHQFTIPFSRNEMADFLCVDRSSMSRELGKMRDEGLLSFNKNKFEIFYFKK | not soluble
12 | MGSDKIHHHHHHMKTRESSVGLKFRKFNRFYTNVLGFLNEHIYDSPFSLTETRILFEIYNTPNCTAKALQDKLGLDRGYVSRIVKQFEKEDLIYKQRSKDDARHHYIFVTETGKTIYKKLEEKANEQVELMLKVINQKEQHKLAEAMAEIEAILSQSLSARASEISIRDYFLSEDLQLLIEKQRQFYAEAHGWDDTFLAYLQETFDADIEKIWIAESGGKFAGSVGLVKHDEKTVQLRWFLVDADFRGRGLGTQLLEHLVAYCQDMKFDRIFLWTVSTMAEARPLYKKFGFRISEVKQEAPLWGQQLTEERWDLELS | not soluble
13 | MGSDKIHHHHHHMKVLLYLEGKTVLEKSGIGRALQHQMEALDMAGIPYTTDLLGDYDVIHINTYGPRSWLLLHAAKRSGKKVIMHGHSTKEDFQNSFIGSNTLAPFVGKYLASMYQKADFVITPSEYSKKLIQSYGVTTPIIAVSNGIDLDKYKKDERKEAIFREHFKIEEGQPVVVCAGLYFRRKGIEDFVKVAEKMPHVRFIWLGSINKWLIPSYIRKIVEGDHPANVEFPGYFKGAVFQGAMSGADAFFFPSYEETEGIVVLEALASHQHVVLRDIPVYDGWVDENVAELGHTVDDFVDSIQKILDKQVDKREAGYQVAVSRSIDNVSHQLVDAYRQVLEM | not soluble
14 | MGSDKIHHHHHHMKVYLVGGAVRDQLLGLPVKDRDWIVVGADPATLLSLGYQQVGKDFPVFLNPKTKEEYALARTERKSSAGYTGFICDFSPTITLEQDLIRRDLTINAMAQSEDGEIIDPYGGKQDLENRILRHISPAFSEDPLRVLRVARFAARYHSLGFKIASETLALMAELAQSGELQHLTAERIWLETEKALNEKNPEIYFETLHKTGALSVLFSEIDALYGVPNPVKHHPEVDSFIHTMLVLKQAVNLTENNPILNKSAVRFAAICHDLGKALTPQNILPHHYGHEQAGIKPTRSLCKRLKVPSYFQELAELTCEFHTHIHKAFELRAETVITLFNRFDVWRKPQRFQEFLQVCLADTRGRTGFETKDYPQIDYINQLLHAANEVDVQQVIADGFEKQAIKNELTKRRILAVKQTKTNYPTN | not soluble
15 | MGSDKIHHHHHHMKWCSSMSDPKPCIICVAITGSVPTKAANPAVPITVAEQIESTHAAFEAGAAICHAHVRNDDETPSSDPEKFARLKEGVEGHCPGMIVQLSTGGRSGASKERGGMLPLRPDMASLSVGSNNFPTRVYENPPDLVDWLAAEMRTYDIKPEIEAFDLSHIHHAALMHQRGQLAGHPYVQFVMGVKNAMPADRETFDFYVATMTRLLPESEWCAAGIGPNQIVLNEWAIAAGGHARTGLEDNVRWDKQTLAPSNAALVERTAEICEKNGRPVATTAQAREILGLRT | not soluble
16 | MGSDKIHHHHHHMKWTTPADLKAQVRKLWDRGLLLASLAGGEALFPRRLTLKSPDSRGLSERFPEVREWIAQLCSAAGFYRIEWRSVNHRVLGANEIPAAIWIDTLEEALGLIGKRRAADQFATLVELTRKKQPELVPWLAKRPLRALELSEDWPRLLEIVTWVLKHPRPAIYLRQIDLPGVHTKFIEGHRGVLAELLDLVLPGEAIDATHTGIGGFCRRYGFLDKPLRVRFRVLDRNIRLPAVESDQDITLTQASFASLDLPASKVFITENEINFLAFPDVPDAMVIFGAGYGFDNLAAAPWLHQRGIYYWGDIDTHGFAILNQLRGFFPHAVSFLMDLQTLLAHRSLWGVEKQPETGTLARLNSEESALYDQLRRNHWGERVRLEQERIGFGFLHDVLRRL | not soluble
17 | MGSDKIHHHHHHMKYGIVGYSGRMGQEIQKVFSEKGHELVLKVDVNGVEELDSPDVVIDFSSPEALPKTVDLCKKYRAGLVLGTTALKEEHLQMLRELSKEVPVVQAYNFSIGINVLKRFLSELVKVLEDWDVEIVETHHRFKKDAPSGTAILLESALGKSVPIHSLRVGGVPGDHVVVFGNIGETIEIKHRAISRTVFAIGALKAAEFLVGKDPGMYSFEEVIFGGE | soluble
18 | MGSDKIHHHHHHMLCALKHLFQGEPQQQAVSGLISTSYTDNDGETRISLKLEPRYENAGEVITKLVELDADPQVVRVGIQSSSIASFGSLENLVNAYGTLYRYLKDNYDSPAKLKKYWGYLANDVVFIQISTDVSSALKIFETINERGVGLNPMDLLKNLLFTQVGQAQFTQLKDEWKKITRPLEKGKEKPLFDHFVMQLENFLFYYIFTKTPTRDMERSFSQWANELRAIADAAECRCHNQWQGIDS | not soluble
